In the supplement of paper PMC11865577:

Experiments:
Experiment in all cases: pull-down binding Z-score (relative to library population); higher = stronger binding
[1] = test system: G-clamp-N3 (biotin conjugate); conditions: RNA library: Library-1 (pre-miRNA loops + repeats)
Summary of the method: (§1)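 Streptavidin beads bearing 100 pmol of a biotin-conjugated small molecule were incubated for 60 min at 25 °C with 1 μg of heat-folded, Cy5- or Cy3-end-labelled RNA library in phosphate/NaCl/KCl buffer. Hot SDS eluted the RNA that stayed bound after three washes, and this RNA was hybridised for 20 h at 55.5 °C to a DNA barcode microarray. Binding was expressed as a Z-score against the library mean and standard deviation, after subtraction of a beads-only signal and trimmed averaging of barcoded replicate probes.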

[2] = test system: TO-N3-2 (biotin conjugate); conditions: RNA library: Library-2
Summary of the method: as §1

TO-N3 (biotin conjugate) = conditions: RNA library: Library-2
Summary of the method: as §1

[3] = test system: TO-3-N3 (biotin conjugate); conditions: RNA library: Library-2
Summary of the method: as §1

[4] = test system: TO-3-N3-2 (biotin conjugate); conditions: RNA library: Library-2
Summary of the method: as §1

| Sequence | pull-down binding Z-score [1] | pull-down binding Z-score [2] | pull-down binding Z-score (TO-N3 (biotin conjugate)) | pull-down binding Z-score [3] | pull-down binding Z-score [4] |
| --- | --- | --- | --- | --- | --- |
| GGACUCAGCCCUGUGCUGAGCCC [hsa-mir-5587] | -0.0279 | -0.961 | 0.532 | 0.722 | -0.313 |
| AGUCCUGUAAUUAGAUCUCAGGACU [hsa-mir-625] | -0.0681 | -0.88 | -0.817 | -0.745 | -0.739 |
| UUUUCCCUUUCUCUUGCCCUGAAA [hsa-mir-4509-1_4509-3_4509-2] | -1 | -0.219 | -0.332 | -0.261 | -0.096 |
| CCCAUUUAAAAUAUGGAA [hsa-mir-548ai] | -2.02 | -0.0504 | 0.322 | 0.535 | -0.0892 |
| GAAAACUUUGGAGAAAAAUUUUC [hsa-mir-4659a] | -0.714 | -0.857 | -1.04 | -0.765 | -0.258 |
| GGGGAGAGGGACACGCCCUGGGCUCUGCCCAGGGUGCAGCCGGACUGACUGAG [hsa-mir-1225] | 1.58 | 1.99 | 1.95 | 1.55 | 1.1 |
| CCUGCAGGUGAGAGCGGGAACACCUGCAU [hsa-mir-7112] | 0.953 | 1.03 | 0.311 | -0.176 | 0.104 |
| GAUUUUUUAGAUUCUAAAGAAAC [hsa-mir-1255a] | -1.12 | -1.27 | -1.02 | -0.837 | -0.365 |
| CUUGUGGUAUUAGUCCGCACAAG [hsa-mir-100] | 1.17 | -0.096 | 0.334 | 0.418 | -0.161 |
| GGGUGAUACACAAGCCUGACCCUCCC [hsa-mir-6793] | -0.976 | 0.954 | 0.416 | 0.244 | 0.55 |
| GUGAGCUGGAAAUGGGGUGCUAC [hsa-mir-598] | 1.37 | 0.962 | 1.5 | 1.46 | 0.651 |
| GGCCGGUCAGGCA [hsa-mir-4689] | 1.09 | 0.682 | 0.576 | 0.391 | -0.106 |
| UUUGUACGGCACUGUGGCCACGUCCAAA [hsa-mir-497] | -0.884 | 0.0542 | -0.0106 | -0.121 | -0.306 |
| UUUACAUGCUACAGUCAAGAUGCGAA [hsa-mir-15b] | -0.982 | -0.147 | 0.275 | 0.288 | 0.0265 |
| AGGGGACACGGGCAAAGACUUGGGGGUUCCUGGGACCCUCAGACGUGUGUCCUCU [hsa-mir-877] | 0.447 | 0.581 | 0.632 | 0.252 | 0.297 |
| AGAACUUUGGUUUU [hsa-mir-4434] | 0.298 | -1.38 | -1.1 | -0.711 | -0.611 |
| GGUUUUGCCAUCAUGCCAAAAGCU [hsa-mir-548v] | -0.76 | 0.259 | 0.277 | 0.00688 | -0.0997 |

| Sequence | pull-down binding Z-score [1] | pull-down binding Z-score [2] | pull-down binding Z-score (TO-N3 (biotin conjugate)) | pull-down binding Z-score [3] | pull-down binding Z-score [4] |
| --- | --- | --- | --- | --- | --- |
| CUGAGGACUGAGGCUCACCUUG [hsa-mir-6772] | 0.0792 | 0.813 | 0.412 | -0.057 | 0.0747 |
| UAAUAUGUAAUAUAAAUGUAUUG [hsa-mir-450a-2] | -0.938 | -0.926 | -0.167 | 0.202 | -0.134 |
| UGGAGUCAGUAUUGGUCUGGCCA [hsa-mir-4255] | 0.114 | 0.502 | -0.319 | -0.417 | 0.104 |
| ACGUCUGGCCGCGUGCGCAUGU [hsa-mir-3175] | 1.55 | 1.89 | 0.838 | -0.222 | -0.244 |
| GACAGGGCAGAGGGUUGCGCCCCCUC [hsa-mir-6511b-1_6511b-2_6511a-2_6511a-3_6511a-1_6511a-4] | 1.05 | 1.23 | 0.754 | 0.412 | 0.284 |
| UGUGACCUGGAGCAGCUCAGGAGGGCUUCCUGGGUGAGGUGGCAGGUUACA [hsa-mir-4311] | 2.01 | 1.69 | 1.08 | 0.566 | 0.183 |
| GCCCCAGGGCAGGGGC [hsa-mir-4515] | 1.01 | -0.972 | -0.583 | -0.247 | -0.473 |
| ACAUUUGCAACCUGUGAAGAUGCAAAACUUUAAGUGU [hsa-mir-2053] | -0.673 | -0.701 | -0.853 | -0.699 | -0.262 |
| AGCACUUUGUGUUUUGUGAAAGAAAGUGCU [hsa-mir-516b-2] | 2.82 | -0.576 | -0.882 | -0.647 | -0.0767 |
| ACGAUAUAUAUACUGCCCUGCUUUUAUACAUACAUACAUACAUACCUAUAUCGU [hsa-mir-4536-1] | -0.956 | -0.809 | -0.734 | -0.603 | -0.00614 |
| UGCCACCCAGCCCUGCAGAGCCCCUGACUC [hsa-mir-6814] | -1.17 | 1.44 | 1.16 | 0.562 | 0.422 |
| CUUGCUUUGAAACUAAAGAAGUAAG [hsa-mir-302a] | 0.749 | -0.319 | -0.193 | -0.0041 | -0.131 |
| AUCUGAAUGAUCUCAGC [hsa-mir-626] | -1.32 | 0.364 | 0.677 | 0.58 | 0.105 |
| UUUGCAUCUGGACGACGAAU [hsa-mir-409] | -0.465 | 0.523 | -0.021 | -0.355 | -0.0371 |
| AUCCCUUAGAUGCUAAGAUGGGGAU [hsa-mir-145] | 1.18 | -0.75 | -0.513 | -0.278 | -0.237 |
| UGACUACUUCGAAAAUGGGAAGUAGACA [hsa-mir-7849] | 3.04 | -0.497 | 0.00324 | 0.0977 | -0.277 |
